Results: patent US20240301049A1 (Ablynx, published 2024)

T1: cyno IL-6 (cynomolgus monkey, UniProt P79341 28-212, limits assumed)
T1 sequence (looked up): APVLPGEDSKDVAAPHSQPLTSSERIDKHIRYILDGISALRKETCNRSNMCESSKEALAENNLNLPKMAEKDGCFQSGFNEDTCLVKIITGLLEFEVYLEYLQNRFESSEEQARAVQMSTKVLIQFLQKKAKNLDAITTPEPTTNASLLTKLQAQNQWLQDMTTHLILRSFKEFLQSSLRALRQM


Columns and labels:
[1] = molecular target: T2, human TNF-α (human, UniProt P01375 77-233); assay: cell-based or functional assay
[2] = molecular target: T3, cyno TNF-α (cynomolgus monkey, UniProt P79337 77-233); assay: cell-based or functional assay
[3] = molecular target: T1, cyno IL-6; assay: cell-based or functional assay
[4] = molecular target: T4, human IL-6 (human, UniProt P05231 30-212); assay: cell-based or functional assay
[5] = molecular target: T2, human TNF-α; assay: cell-based or functional assay; remark: listed apart in the source
[6] = molecular target: T3, cyno TNF-α; assay: cell-based or functional assay; remark: listed apart in the source
[7] = molecular target: T1, cyno IL-6; assay: cell-based or functional assay; remark: listed apart in the source
[8] = molecular target: T4, human IL-6; assay: cell-based or functional assay; remark: listed apart in the source
[9] = molecular target: T4, human IL-6; assay: SPR

T2 sequence (P01375 77-233 limits assumed): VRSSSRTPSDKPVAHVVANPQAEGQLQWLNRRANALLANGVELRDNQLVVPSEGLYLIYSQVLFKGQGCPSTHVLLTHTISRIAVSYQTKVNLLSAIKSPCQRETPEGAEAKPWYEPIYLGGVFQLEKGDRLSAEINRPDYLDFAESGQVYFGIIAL
T3 sequence (P79337 77-233 limits assumed): as the sequence (P01375 77-233 limits assumed) above, with L37V, R44T, T72N, R138L counted along it

Row | Ratio IC50 reference anti-TNF-α mAb/Nb [1] | hTNF-α Nfkb assay (IC50, pM) [1] | cyno TNF-α NFkb assay (IC50, pM) [2] | cyno IL-6 TF1 proliferation assay (IC50, pM) [3] | Ratio IC50 reference anti-IL-6 mAb1/Nb [4] | hIL-6 TF1 proliferation assay (IC50, pM) [4] | IC50 hTNF-α Nfkb assay [5] | Ratio IC50 cyno TNFα/hTNFα [6] | Ratio IC50 cyno IL-6/hIL-6 [7] | IC50 hIL-6 TF1 proliferation assay [8] | koff [9] | Binder
1 | 0.91 ratio | 71 pM | 176 pM | 101 pM | 2.7 ratio | 147 pM | 0.0712 nM | 2.5 ratio | 0.7 ratio | 0.147 nM |  | F027201061 (bispecific antibody) EVQLVESGGGVVQPGGSLRLSCTASGFTFSTADMGWFRQAPGKGREFVARISGIDGTTYYDEPVKGRFTISRDNSKNTVYLQMNSLRPEDTALYYCRSPRYADQWSAYDYWGQGTLVKVSSGGGGSGGGSEVQLVESGGGVVQPGGSLRLSCAASGFTLAYYAIGWFRQAPGKEREGVSCISGSVGTTYYADSVKGRFTISRDNAKNTVYLQMNSLRPEDTALYYCVRSSWFDCGVQGRDLGNEYDYRGQGTLVTVSSGGGGSGGGSEVQLVESGGGVVQPGGSLRLSCAASGFTFRSFGMSWVRQAPGKGPEWVSSISGSGSDTLYADSVKGRFTISRDNSKNTLYLQMNSLRPEDTALYYCTIGGSLSRSSQGTLVTVSSGGGGSGGGSEVQLVESGGGVVQPGGSLRLSCAASGFSLDYYGVGWFRQAPGKEREGVSCISSSEGDTYYADSVKGRFTISRDNAKNTVYLQMNSLRPEDTALYYCATDLSDYGVCSRWPSPYDYWGQGTLVKVSS
2 | 4.2 ratio | 59 pM | 254 pM | 72 pM | 1.8 ratio | 71 pM | 0.0593 nM | 4.3 ratio | 1 ratio | 0.0712 nM |  | F027200927 (bispecific antibody) DVQLVESGGGVVQPGGSLRLSCTASGFTFSTADMGWFRQAPGKGREFVARISGIDGTTYYDEPVKGRFTISRDNSKNTVYLQMNSLRPEDTALYYCRSPRYADQWSAYDYWGQGTLVTVSSGGGGSGGGSEVQLVESGGGVVQPGGSLRLSCAASGRTFSSYVMGWFRQAPGKEREFVSTINWAGSRGYYADSVKGRFTISRDNAKNTVYLQMNSLRPEDTALYYCAASAGGFLVPRVGQGYDYWGQGTLVTVSSGGGGSGGGSEVQLVESGGGVVQPGGSLRLSCAASGFTFRSFGMSWVRQAPGKGPEWVSSISGSGSDTLYADSVKGRFTISRDNSKNTLYLQMNSLRPEDTALYYCTIGGSLSRSSQGTLVTVSSGGGGSGGGSEVQLVESGGGVVQPGGSLRLSCAASGFSLDYYGVGWFRQAPGKEREGVSCISSSEGDTYYADSVKGRFTISRDNAKNTVYLQMNSLRPEDTALYYCATDLSDYGVCSRWPSPYDYWGQGTLVKVSSA

The remaining lines, values behind:

Row | Binder | Ratio IC50 reference anti-TNF-α mAb/Nb [1] | hTNF-α Nfkb assay (IC50, pM) [1] | cyno TNF-α NFkb assay (IC50, pM) [2] | cyno IL-6 TF1 proliferation assay (IC50, pM) [3] | Ratio IC50 reference anti-IL-6 mAb1/Nb [4] | hIL-6 TF1 proliferation assay (IC50, pM) [4] | IC50 hTNF-α Nfkb assay [5] | Ratio IC50 cyno TNFα/hTNFα [6] | Ratio IC50 cyno IL-6/hIL-6 [7] | IC50 hIL-6 TF1 proliferation assay [8] | koff [9]
3 | F027200812 (bispecific antibody) DVQLVESGGGVVQPGGSLRLSCAASGRTFSNYAMAWFRQAPGKEREFVAVISYAGGRTYYADSVKGRFTISRDNAKNTVYLQMNSLRPEDTALYYCAAVDSPLIATHPRGYDYWGQGTLVTVSSGGGGSGGGSEVQLVESGGGVVQPGGSLRLSCAASGFTFRSFGMSWVRQAPGKGPEWVSSISGSGSDTLYADSVKGRFTISRDNSKNTLYLQMNSLRPEDTALYYCTIGGSLSRSSQGTLVTVSSGGGGSGGGSEVQLVESGGGVVQPGGSLRLSCAASGFSLDYYGVGWFRQAPGKEREGVSCISSSEGDTYYADSVKGRFTISRDNAKNTVYLQMNSLRPEDTALYYCATDLSDYGVCSRWPSPYDYWGQGTLVKVSSGGGGSGGGSEVQLVESGGGVVQPGGSLRLSCTASGFTFSTADMGWFRQAPGKGREFVARISGIDGTTYYDEPVKGRFTISRDNSKNTVYLQMNSLRPEDTALYYCRSPRYADQWSAYDYWGQGTLVKVSS | 0.62 ratio | 206 pM | 360 pM | 54 pM | 1.7 ratio | 72 pM | 0.206 nM | 1.7 ratio | 0.7 ratio | 0.072 nM | 
4 | F027200925 (bispecific antibody) DVQLVESGGGVVQPGGSLRLSCTASGFTFSTADMGWFRQAPGKGREFVARISGIDGTTYYDEPVKGRFTISRDNSKNTVYLQMNSLRPEDTALYYCRSPRYADQWSAYDYWGQGTLVTVSSGGGGSGGGSEVQLVESGGGVVQPGGSLRLSCAASGIIFSINAMGWYRQAPGKQRELVADIFPFGSTEYADSVKGRFTISRDNAKNTVYLQMNSLRPEDTALYYCHSYDPRGDDYWGQGTLVTVSSGGGGSGGGSEVQLVESGGGVVQPGGSLRLSCAASGFTFRSFGMSWVRQAPGKGPEWVSSISGSGSDTLYADSVKGRFTISRDNSKNTLYLQMNSLRPEDTALYYCTIGGSLSRSSQGTLVTVSSGGGGSGGGSEVQLVESGGGVVQPGGSLRLSCAASGRTFSSYVMGWFRQAPGKEREFVSTINWAGSRGYYADSVKGRFTISRDNAKNTVYLQMNSLRPEDTALYYCAASAGGFLVPRVGQGYDYWGQGTLVKVSSA | 1.43 ratio | 64 pM | 265 pM | 1710 pM | 14.8 ratio | 610 pM | 0.0643 nM | 4.1 ratio | 2.8 ratio | 0.61 nM | 
5 | F027201060 (bispecific antibody) EVQLVESGGGVVQPGGSLRLSCAASGFTLAYYAIGWFRQAPGKEREGVSCISGSVGTTYYADSVKGRFTISRDNAKNTVYLQMNSLRPEDTALYYCVRSSWFDCGVQGRDLGNEYDYRGQGTLVTVSSGGGGSGGGSEVQLVESGGGVVQPGGSLRLSCAASGFTFRSFGMSWVRQAPGKGPEWVSSISGSGSDTLYADSVKGRFTISRDNSKNTLYLQMNSLRPEDTALYYCTIGGSLSRSSQGTLVTVSSGGGGSGGGSEVQLVESGGGVVQPGGSLRLSCAASGFSLDYYGVGWFRQAPGKEREGVSCISSSEGDTYYADSVKGRFTISRDNAKNTVYLQMNSLRPEDTALYYCATDLSDYGVCSRWPSPYDYWGQGTLVKVSSGGGGSGGGSEVQLVESGGGVVQPGGSLRLSCTASGFTFSTADMGWFRQAPGKGREFVARISGIDGTTYYDEPVKGRFTISRDNSKNTVYLQMNSLRPEDTALYYCRSPRYADQWSAYDYWGQGTLVKVSS | 0.67 ratio | 100 pM | 176 pM | 49 pM | 2.3 ratio | 127 pM | 0.0999 nM | 1.8 ratio | 0.4 ratio | 0.127 nM | 
6 | F027201040 (VHH, also called IL6006B12 (L11V, S52aG, S60A, K83R, V89L)) VHH: EVQLVESGGGVVQPGGSLRLSCAASGFTLAYYAIGWFRQAPGKEREGVSCISGSVGTTYYADSVKGRFTISRDNAKNTVYLQMNSLRPEDTALYYCVRSSWFDCGVQGRDLGNEYDYRGQGTLVTVSS |  |  |  |  |  |  |  |  |  |  | 5.9e-05 s⁻¹
